B1: ACT017 antibody (Fab, V domains shown)
VH: QVQLVQSGAEVKKPGASVKVSCKASGYTFTSYNMHWVRQAPGQGLEWMGGIYPGNGDTSYNQKFQGRVTMTRDTSTSTVYMELSSLRSEDTAVYYCARGTVVGDWYFDVWGQGTLVTVSS
VL: DIQMTQSPSSLSASVGDRVTITCRSSQSLENSNGNTYLNWYQQKPGKAPKLLIYRVSNRFSGVPSRFSGSGSGTDFTFTISSLQPEDIATYYCLQLTHVPWTFGQGTKVEITR
notes: Humanized anti-human GPVI; also called the Fab of the invention
B2: wild-type soluble GPVI-Fc (Fc fusion)
chain: QSGPLPKPSLQALPSSLVPLEKPVTLRCQGPPGVDLYRLEKLSSSRYQDQAVLFIPAMKRSLAGRYRCSYQNGSLWSLPSDQLELVATGVFAKPSLSAQPGPAVSSGGDVTLQCQTRYGFDQFALYKEGDPAPYKNPERWYRASFPIITVTAAHSGTYRCYSFSSRDPYLWSAPSDPLELVVTGTSVTPSRLPTEPPSSVAEFSEATAELTVSFTNKVFTTETSRSITTSPKESDSPAGPARQYYTKGNGGR
notes: The gene encodes the ectodomain from the first methionine to asparagine 269; also called wild-type GPVI-Fc; not shown: human IgG1 Fc domain

How the values were obtained:
[1] = target: T1, double mutant GPVI-Fc (S125P, S126Q, G128R, Q133K, T136S, T171D, A172L, H174V) (human, UniProt Q9HCN6 21-269); assay: ELISA: double mutant GPVI-Fc coated at 20 µg/mL, increasing ACT017, peroxidase-coupled anti-human IgG, absorbance at 450 nm
T1 construct: also called GPVI double mutant; not shown: human IgG1 Fc domain
T1 chain: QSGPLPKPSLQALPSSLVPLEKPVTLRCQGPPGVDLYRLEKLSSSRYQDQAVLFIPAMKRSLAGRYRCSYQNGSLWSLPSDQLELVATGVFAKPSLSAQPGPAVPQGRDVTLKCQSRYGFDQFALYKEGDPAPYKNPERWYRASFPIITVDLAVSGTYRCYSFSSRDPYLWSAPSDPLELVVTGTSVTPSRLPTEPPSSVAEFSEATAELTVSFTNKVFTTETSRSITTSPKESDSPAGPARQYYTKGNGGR
Method: (§1) Microtitration plates were coated with GPVI-Fc in PBS (20 μg/mL, 100 μL per well) overnight at 4° C. Nonspecific binding sites were saturated with 200 μL of 1% BSA in PBS for 30 min. The plates were then incubated with increasing concentrations of ACT017 preparations (100 μL in PBS containing 0.1% BSA and 0.1% Tween 20) for 30 min. After 3 washing rounds plates were incubated with a peroxidase-coupled secondary human anti-IgG for 30 min. Finally, 100 μL of the substrate solution were added to each well for 4 min, and the colorimetric reaction stopped by 25 μL NaOH 3 M.

[2] = target: B2; assay: ELISA: GPVI-Fc coated at 20 µg/mL, increasing ACT017, peroxidase-coupled anti-human IgG, absorbance at 450 nm
Method: as §1

Collagen = target: T2, Collagen; assay: ELISA: collagen coated at 20 µg/mL, increasing GPVI-Fc, peroxidase-coupled anti-human Fc, absorbance at 450 nm
T2 construct: Horm collagen (Nycomed) is named only for the platelet aggregation assays; The collagen used in the ELISA is not specified
Method: Microtitration plates were coated with Collagen in PBS (20 μg/mL, 100 μL per well) overnight at 4° C.
as §1, with “Nonspecific” for “Microtitration plates were coated with GPVI-Fc in PBS (20 μg/mL, 100 μL per well) overnight at 4° C. Nonspecific”, “wild-type or double mutant GPVI-Fc” for “ACT017”, “anti-Fc(ab)” for “anti-IgG”

Binder	binding result [1]	EC50 (read off the curve) [2] [µg/mL]	EC50 (read off the curve) (Collagen) [µg/mL]
B1	no binding (tested: about 830 ng/ml)	~0.03	
B2			~0.6
